The target of this assay is T1, ZIKV envelope (E) protein, strain H/PF/2013, on purified virus particles (Zika virus (ZIKV-H/PF/2013)).
T1 construct: envelope (E) protein of Zika virus strain H/PF/2013, cut product of the viral polyprotein, membrane-anchored on the virus particle; the entire E protein with its transmembrane regions was fitted; Stood on whole virus particles (catSP after 37 °C with Fab C10) together with the M protein and the lipid membrane
Briefly: cryoEM micrographs and 2D averages; Fab mixed with purified virus at a molar ratio of 1.5 Fab to E protein; Fab added before exposure to 37 °C (DENV3-CH53489, ZIKV) or after the virus was incubated at 37 °C (DENV3-CH53489); binding seen as spiky surface and Fab density in 2D averages. The conditions noted are these: both partners purified.

B1: Fab C10 (Fab, V domains shown)
VH: EVQLVESGAEVKKPGASVKVSCKASGYTFTSYAMHWVRQAPGQRLEWMGWINAGNGNTKYSQKFQDRVTITRDTSASTAYMELSSLRSEDTAIYYCARDKVDDYGDYWFPTLWYFDYWGQGTLVTVS
VL: ALTQPASVSGSPGQSITISCTGTSSDVGGFNYVSWFQQHPGKAPKLMLYDVTSRPSGVSSRFSGSKSGNTASLTISGLQAEDEADYYCSSHTSRGTWVFGGGTKLTVL
notes: Only the variable regions of the Fab were fitted into the maps; also called antibody C10; Fab fragment of antibody C10; source: monoclonal antibody C10 obtained from Gavin Screaton; Fab made from IgG with papain conjugated resins, purified (anion-exchange, gel filtration)
In the case of B1, the binding result is given as “binds”.

The values above are taken from publication PMC7305169, “High flavivirus structural plasticity demonstrated by a non-spherical morphological variant” (Nature Communications, 2020).
